Assay results from US20230087785A1, “Leucine-Rich Repeat Kinase 2 Allosteric Modulators” (VIB VZW, priority 2020, published 2023).
One block for each molecule: values may come before it.

Tests used:
full-length LRRK2 = molecular target: T1, full-length LRRK2 (Homo sapiens, UniProt Q5S007, M2397T/R50H); assay: Microscale thermophoresis (MST) affinity measurement; type: binding; settings: m-TAMRA-labeled Nb titrated with LRRK2; 500 μM GDP
T1 construct: Full-length human LRRK2 was expressed and purified based on previously developed protocols; SF tag (FLAG-tag + Twin-Strep-tag); made in house; host or cells: HEK 293T
Text: Binding isotherms are shown, obtained by titrating increasing concentrations of LRRK2 to fluorescently (m-TAMRA)-labeled Nbs and measuring the MST signals. Nbs are classified into four functional groups as defined in FIG. 2d with (FIG. 13A) group 1 Nbs, (FIG. 13B) group 2 Nbs, (FIG. 13C) group 3 Nbs, and (FIG. 13D) group 4 Nbs. In panel (FIG. 13E) two negative controls are shown, where LRRK2 was either titrated to free m-TAMRA or to a m-TAMRA-labeled irrelevant Nb. All measurements were performed in presence of 500 μM GDP, except for Nb42 where GTPγS was used. The corresponding equilibrium dissociation constants (Kd±standard error) obtained by fitting with a quadratic binding equation are given (each data point is the average of three independent measurements with the error bars representing the standard deviation; NB=no MST binding signal detectable).
To determine the binding affinity (dissociation constant KD) of the ten Nbs for LRRK2, two methods were used in parallel: microscale thermophoresis (MST) and bio-layer interferometry (BLI). […] For the BLI experiment LRRK2 was first trapped on a streptavidin-coated biosensor using biotinylated Nb40 as trapping agent (except to assess binding of Nb40, where Nb42 was used as trapping agent), after which binding of all Nbs to LRRK2 was determined. […]

Roc domain = molecular target: T2, Roc domain (Homo sapiens, UniProt Q5S007); assay: Analytical size exclusion chromatography; type: binding; settings: data not shown
T2 construct: A construct of the Roc domain spanning the residues 1329-1520 was cloned in the pET-28a vector providing an N-terminal His6-tag; His6 (N); made in house; host or cells: E. coli BL21(DE3)
T2 sequence (Q5S007 1329-1520): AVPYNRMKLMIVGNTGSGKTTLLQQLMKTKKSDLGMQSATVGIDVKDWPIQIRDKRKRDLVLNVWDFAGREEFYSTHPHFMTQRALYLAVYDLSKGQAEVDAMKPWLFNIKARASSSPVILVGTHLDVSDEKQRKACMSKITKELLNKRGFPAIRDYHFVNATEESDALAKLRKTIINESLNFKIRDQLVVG

T1 sequence (Q5S007 whole entry R50H/M2397T): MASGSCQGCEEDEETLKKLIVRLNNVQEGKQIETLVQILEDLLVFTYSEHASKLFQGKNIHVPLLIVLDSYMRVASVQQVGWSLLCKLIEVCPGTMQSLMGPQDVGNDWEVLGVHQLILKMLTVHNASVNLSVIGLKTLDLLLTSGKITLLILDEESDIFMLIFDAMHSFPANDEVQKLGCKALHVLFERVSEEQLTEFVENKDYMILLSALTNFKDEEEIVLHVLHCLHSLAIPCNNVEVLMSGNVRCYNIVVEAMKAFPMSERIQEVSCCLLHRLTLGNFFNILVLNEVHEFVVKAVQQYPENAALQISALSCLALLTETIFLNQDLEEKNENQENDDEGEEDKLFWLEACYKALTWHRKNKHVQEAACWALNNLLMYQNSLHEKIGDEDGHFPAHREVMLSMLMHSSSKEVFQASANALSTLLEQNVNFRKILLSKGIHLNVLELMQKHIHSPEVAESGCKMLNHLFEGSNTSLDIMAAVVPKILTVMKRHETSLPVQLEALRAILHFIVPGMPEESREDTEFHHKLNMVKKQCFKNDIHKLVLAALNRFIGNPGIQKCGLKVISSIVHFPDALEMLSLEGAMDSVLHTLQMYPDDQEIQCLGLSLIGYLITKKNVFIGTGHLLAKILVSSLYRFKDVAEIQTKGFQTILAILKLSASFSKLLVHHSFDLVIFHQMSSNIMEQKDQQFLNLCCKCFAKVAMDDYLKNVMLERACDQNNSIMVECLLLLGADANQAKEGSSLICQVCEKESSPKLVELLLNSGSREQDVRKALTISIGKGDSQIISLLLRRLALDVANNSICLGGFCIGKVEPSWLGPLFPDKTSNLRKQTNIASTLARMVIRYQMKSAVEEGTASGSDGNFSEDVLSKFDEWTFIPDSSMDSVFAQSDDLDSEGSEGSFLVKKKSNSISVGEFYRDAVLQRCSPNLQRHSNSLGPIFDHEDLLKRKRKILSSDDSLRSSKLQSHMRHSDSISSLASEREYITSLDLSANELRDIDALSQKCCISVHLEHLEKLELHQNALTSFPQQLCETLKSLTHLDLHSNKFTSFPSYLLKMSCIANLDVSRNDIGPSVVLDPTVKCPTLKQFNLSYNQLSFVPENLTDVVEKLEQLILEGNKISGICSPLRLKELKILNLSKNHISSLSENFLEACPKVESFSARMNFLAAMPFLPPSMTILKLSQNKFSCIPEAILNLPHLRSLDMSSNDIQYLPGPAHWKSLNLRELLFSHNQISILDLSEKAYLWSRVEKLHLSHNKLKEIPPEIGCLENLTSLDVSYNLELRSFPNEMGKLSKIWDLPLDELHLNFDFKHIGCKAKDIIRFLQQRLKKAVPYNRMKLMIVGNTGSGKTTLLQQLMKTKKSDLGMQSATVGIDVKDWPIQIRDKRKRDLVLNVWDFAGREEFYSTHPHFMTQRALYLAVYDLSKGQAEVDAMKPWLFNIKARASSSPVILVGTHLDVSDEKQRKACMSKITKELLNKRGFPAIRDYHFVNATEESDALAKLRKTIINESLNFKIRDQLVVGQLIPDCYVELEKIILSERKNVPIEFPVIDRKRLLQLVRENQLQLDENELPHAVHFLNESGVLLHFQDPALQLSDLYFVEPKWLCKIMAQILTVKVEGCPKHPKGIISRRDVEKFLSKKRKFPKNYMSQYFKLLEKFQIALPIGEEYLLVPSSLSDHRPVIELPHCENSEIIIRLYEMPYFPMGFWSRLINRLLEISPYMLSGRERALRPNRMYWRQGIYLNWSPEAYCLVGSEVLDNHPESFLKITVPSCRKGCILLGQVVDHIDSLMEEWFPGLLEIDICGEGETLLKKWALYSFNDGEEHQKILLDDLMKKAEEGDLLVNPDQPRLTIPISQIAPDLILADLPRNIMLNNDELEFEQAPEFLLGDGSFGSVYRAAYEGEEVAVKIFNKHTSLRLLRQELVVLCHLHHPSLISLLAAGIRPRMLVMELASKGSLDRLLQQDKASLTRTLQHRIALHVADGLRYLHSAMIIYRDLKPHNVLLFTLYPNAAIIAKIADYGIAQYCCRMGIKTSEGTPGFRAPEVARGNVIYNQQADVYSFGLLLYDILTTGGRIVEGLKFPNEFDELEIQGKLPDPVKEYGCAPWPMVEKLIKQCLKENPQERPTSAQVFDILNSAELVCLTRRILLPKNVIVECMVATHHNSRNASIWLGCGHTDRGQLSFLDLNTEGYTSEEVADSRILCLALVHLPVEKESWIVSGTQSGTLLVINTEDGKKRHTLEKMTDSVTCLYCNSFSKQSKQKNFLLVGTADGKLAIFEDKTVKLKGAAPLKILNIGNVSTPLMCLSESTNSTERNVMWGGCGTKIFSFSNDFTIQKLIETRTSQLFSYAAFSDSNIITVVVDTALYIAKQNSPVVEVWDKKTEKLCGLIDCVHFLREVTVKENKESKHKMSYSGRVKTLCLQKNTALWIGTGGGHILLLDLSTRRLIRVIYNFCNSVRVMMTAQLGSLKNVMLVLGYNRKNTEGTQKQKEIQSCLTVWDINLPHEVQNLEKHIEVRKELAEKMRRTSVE

B1: Nb23: LRRK2-specific Nanobody, SEQ ID NO: 3 (protein)
VHH: MAQVQLVESGGGLVQAGGSLRLSCAASGRTFSRYTMGWFRQAPGKDREFVARITTSGAVTTYADSAKGRFTISRDNAKNTVYLQMNTLKPEDTAVYYCAAGQGQLSSQSRFVDYWGQGTQVTVSS
modifications: Nanobody CA13612
KD (nM)-MST (full-length LRRK2): did not generate a change in thermophoresis behavior

binding to Roc (Roc domain): binding to Roc was confirmed
B2: Nb42: LRRK2-specific Nanobody, SEQ ID NO: 6 (protein)
VHH: MAQVQLVESGGGLVQAGGSLRLSCAASGDVNYAVGWFRQAPRKEREFVAAINWRGDNTDYTDSVKGRFTISRDNAKNTVYLQMNSLKPEDTAVYYCAAKSAPYWYSDIAPDYWGQGTQVTVSS
modifications: Nanobody CA14259
